Laboratory results reported in the supplement of paper PMC9112550, “Optimization of the antimicrobial peptide Bac7 by deep mutational scanning” (BMC Biology, 2022).

Each sequence was assayed on Escherichia coli TOP10 (assay: shrunken log2 fold change of peptide-encoding DNA abundance (4.5 h post-induction vs induction); higher = less antimicrobial activity (less host growth inhibition)). Conditions: time post-induction: 4.5 h; library: site-saturation at positions 5, 18, 19, 20.
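Further: peptides expressed intracellularly from a pBAD plasmid library in pooled LB shake-flask culture, induced with 0.3% L-arabinose, DNA abundance read by NGS, three biological replicates, DESeq2 with apeglm shrinkage.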

Sequence	shrunken log2 fold change
RRIRNRPPRLPRPRPRPGDDPRP	0.0116
RRIRWRPPRLPRPRPRPSTQPRP	0.0274
RRIRIRPPRLPRPRPRPEMFPRP	0.0821
RRIRARPPRLPRPRPRPPQEPRP	0.854
RRIRNRPPRLPRPRPRPEAYPRP	0.0274
RRIRLRPPRLPRPRPRPMCNPRP	0.107
RRIRFRPPRLPRPRPRPYQQPRP	0.00163
RRIRCRPPRLPRPRPRPMTEPRP	-0.123
RRIRNRPPRLPRPRPRPVAVPRP	-0.0786
RRIRTRPPRLPRPRPRPCRHPRP	-0.101
RRIRPRPPRLPRPRPRPKHVPRP	-0.137
RRIRGRPPRLPRPRPRPNIEPRP	0.51
RRIRYRPPRLPRPRPRPSVWPRP	0.0896
RRIRQRPPRLPRPRPRPKIEPRP	-0.32
RRIRVRPPRLPRPRPRPWTGPRP	-0.0167
RRIRGRPPRLPRPRPRPYAHPRP	0.023
RRIRFRPPRLPRPRPRPESSPRP	0.113
RRIRYRPPRLPRPRPRPDRIPRP	-0.00973
RRIRRRPPRLPRPRPRPYWLPRP	-0.578
RRIRDRPPRLPRPRPRPCFAPRP	0.512

Sequence	shrunken log2 fold change
RRIRVRPPRLPRPRPRPGWDPRP	0.243
RRIRVRPPRLPRPRPRPRAMPRP	0.213
RRIRHRPPRLPRPRPRPKTYPRP	-1.51
RRIRWRPPRLPRPRPRPIDKPRP	-0.105
RRIRVRPPRLPRPRPRPPWKPRP	-0.0783
RRIRERPPRLPRPRPRPWYQPRP	-0.219
RRIRPRPPRLPRPRPRPVMAPRP	-0.128
RRIRRRPPRLPRPRPRPEKLPRP	0.128
RRIRLRPPRLPRPRPRPHSHPRP	1.65
RRIRQRPPRLPRPRPRPVTEPRP	-0.35
RRIRCRPPRLPRPRPRPCTRPRP	-0.321
RRIRGRPPRLPRPRPRPEFQPRP	0.226
RRIRWRPPRLPRPRPRPDIQPRP	0.27
RRIRPRPPRLPRPRPRPPADPRP	0.593
RRIRHRPPRLPRPRPRPLIDPRP	-0.408
RRIRKRPPRLPRPRPRPTCGPRP	0.561
RRIRVRPPRLPRPRPRPAPMPRP	0.324
RRIRWRPPRLPRPRPRPGRVPRP	0.37
RRIRTRPPRLPRPRPRPNFYPRP	-0.186
RRIRIRPPRLPRPRPRPDVSPRP	-0.121

Sequence	shrunken log2 fold change
RRIRMRPPRLPRPRPRPSSWPRP	0.477
RRIRLRPPRLPRPRPRPQKVPRP	0.0989
RRIRFRPPRLPRPRPRPEFNPRP	-0.199
RRIRIRPPRLPRPRPRPWHHPRP	-0.126
RRIRCRPPRLPRPRPRPMCCPRP	-0.038
RRIRFRPPRLPRPRPRPAPFPRP	-0.236
RRIRPRPPRLPRPRPRPGINPRP	-0.178
RRIRPRPPRLPRPRPRPQPGPRP	0.204
RRIRVRPPRLPRPRPRPTKQPRP	-0.0322
RRIRDRPPRLPRPRPRPPKNPRP	0.344
RRIRHRPPRLPRPRPRPEACPRP	-0.0115
RRIRCRPPRLPRPRPRPQTDPRP	-0.00613
RRIRQRPPRLPRPRPRPREPPRP	0.0406
RRIRMRPPRLPRPRPRPQGTPRP	-0.000856
RRIRKRPPRLPRPRPRPANLPRP	0.299
RRIRKRPPRLPRPRPRPFCHPRP	0.00474
RRIRTRPPRLPRPRPRPLWHPRP	-0.221
RRIRKRPPRLPRPRPRPRQDPRP	-0.0954
RRIRQRPPRLPRPRPRPFKCPRP	0.00905
RRIRPRPPRLPRPRPRPCHDPRP	-0.097
